Assay results taken from patent US20200332017A1 (SALUBRIS CHENGDU BIOTECH, published 2020).

Legend:
[1] = molecular target: T1, full length human CD40 (uniprot # P25942-1) on the membrane of 293T-CD40 cells (human, UniProt P25942 21-277); test: cell-based or functional assay
[2] = molecular target: T2, Human CD40-his protein (Acro biosystems, Cat # CD0-H5228) (human, UniProt P25942 21-193); test: SPR, Biacore; human CD40-his
T2 construct: Bought reagent; not shown: his tag
Description: (§1) Briefly, goat anti-mouse IgG (GE healthcare, Cat # BR100838, Mouse Antibody Capture Kit) was covalently linked to a CM5 or a Protein G chip (carboxy methyl dextran coated chip) via primary amines, using a standard amine coupling kit provided by Biacore (GE healthcare, Pittsburgh, Pa., USA). Un-reacted moieties on the biosensor surface were blocked with ethanolamine. […] Then, human CD40-his (Acro biosystems, Cat # CD0-H5228) or cynomolgus monkey CD40-his protein (Acro biosystems, Cat # CD0-052H6) in HBS EP buffer (provided by Biacore) was flowed onto the chip at a flow rate of 30 μL/min. The antigen-antibody association kinetics was followed for 2 minutes and the dissociation kinetics was followed for 10 minutes. The association and dissociation curves were fit to a 1:1 Langmuir binding model using BIA evaluation software.

[3] = molecular target: T3, cynomolgus monkey CD40-his protein (Acro biosystems, Cat # CD0-052H6) (cynomolgus monkey, UniProt G7PG38 21-193); test: SPR, Biacore; cynomolgus CD40-his
T3 construct: Bought reagent; also called Cynomolgus CD40-his
Description: as §1

[4] = molecular target: T1, full length human CD40 (uniprot # …); test: flow cytometry on 293T-CD40 cells
Method: 2×10⁵ cells per well in 96 well-plates were incubated with the mouse anti-CD40 antibodies or the controls of various concentrations in FACS buffer for 40 minutes on ice. […] Following an incubation of 40 minutes at 4° C. in dark, cells were washed three times and resuspended in FACS buffer. Fluorescence was measured using a Becton Dickinson FACS Canto II-HTS equipment and plotted against antibody concentration.

[5] = molecular target: T2, Human CD40-his protein (Acro …); test: SPR, Biacore; antibody captured, human CD40-his flowed
Description: as §1

[6] = molecular target: T4, human CD40-Fc protein (amino acid residue 21-193 of SEQ ID NO: 67 linked to N-terminus of amino acid residue … (human, biotin-labeled in the capture ELISA and in the benchmark blocking ELISA; unlabeled when coated in the ligand blocking ELISA); test: capture ELISA; antibody captured, biotin-labeled human CD40-Fc in solution
T4 construct: also called biotin-labeled human CD40-Fc; human CD40-Fc-biotin
Method: Plates were washed 4 times with wash buffer (PBS+0.05% Tween-20, PBST) and then blocked with 200 μl/well blocking buffer (5% w/v non-fatty milk in PBST) for 2 hours at 37° C. […] After a final wash, plates were incubated with 100 μl/well ELISA substrate TMB (Innoreagents, Cat # TMB-S-002). The reaction was stopped in 15 minutes at 25° C. with 50 μl/well 1M H₂SO₄, and the absorbance was read at 450 nm and plotted against antibody concentration. Data were analyzed using Graphpad Prism software and EC₅₀ values were reported.

[7] = molecular target: T4, human CD40-Fc protein (amino acid …); test: competitive ELISA; biotin human CD40-Fc in solution, competitor coated BM2
Method: (§2) The ability of the mouse anti-CD40 antibodies of the present invention to block the binding of the Benchmark to human CD40 was measured using a competitive ELISA assay. […] The next day, plates were washed with wash buffer, and blocked with 5% w/v non-fatty milk in PBST for 2 hours at 37° C. Plates were then washed again using wash buffer. […] After incubation at 37° C. for 40 minutes, plates were washed 4 times using wash buffer. Then streptavidin conjugated HRP was added and incubated for 40 minutes at 37° C. to detect biotin-labeled human CD40-Fc bound to plates. Plates were washed again using wash buffer. Finally, TMB was added and the reaction was stopped using 1M H₂SO₄, and the absorbance was read at 450 nm. Data were analyzed using Graphpad Prism software and IC₅₀ values were reported.

[8] = molecular target: T4, human CD40-Fc protein (amino acid …); test: competitive ELISA; coated human CD40-Fc, competitor biotin human CD40L-his
Method: (§3) Serially diluted the mouse anti-CD40 antibodies of the present invention or the controls (starting at 200 nM with a four-fold serial dilution) in 2.5% w/v non-fatty milk in PBST were prepared to the plates and incubated with the human CD40-Fc proteins at room temperature for 40 minutes. […] Plates were washed again. 100 μl/well of streptavidin conjugated HRP was added and incubated for 40 minutes at 37° C. Plates were washed again using wash buffer. Finally, TMB was added and the reaction was stopped using 1M H₂SO₄, and the absorbance was read at 450 nm. Data were analyzed using Graphpad Prism software and IC₅₀ values were reported.

[9] = molecular target: T1, full length human CD40 (uniprot # …); test: flow cytometry on 293T-CD40 cells, PE goat anti-human IgG Fc-gamma secondary antibody, MFI
Method: Following an incubation of 40 minutes at 4° C. in dark, cells were washed three times and resuspended in FACS buffer. Fluorescence was measured using a Becton Dickinson FACS Canto II-HTS equipment and plotted against antibody concentration.

[10] = molecular target: T4, human CD40-Fc protein (amino acid …); test: capture ELISA (antibody captured on coated goat anti-human IgG F(ab')2, biotin-labeled human CD40-Fc in solution, streptavidin-HRP, OD(450-630))
[11] = molecular target: T4, human CD40-Fc protein (amino acid …); test: ligand blocking ELISA: human CD40-Fc coated, antibody titrated, then biotin-labeled human CD40L-his (blocked ligand), streptavidin-HRP, OD(450-630)
Method: as §3

[12] = molecular target: T4, human CD40-Fc protein (amino acid …); test: benchmark blocking ELISA: BM2 (Selicrelumab) coated as competitor, antibody titrated in biotin-labeled human CD40-Fc solution, streptavidin-HRP, OD(450-630)
Method: as §2

B1: humanized antibody huC1C1-V7 (antibody, human IgG1, kappa, V domains shown)
VH: EVQLVESGGGVVQPGRSLRLSCAASGFTFSNYGMSWVRQAPGKGLEWVASISSGGDDTYYPDNVKGRFTISRDNSKNTLYLQMNSLRAEDTAVYYCTRAGGKAMDYWGQGTLVTVSS
VL: EIVLTQSPATLSLSPGERATLSCRASQSIRDNLHWYQQKPGQAPRLLIYYASQSISGIPARFSGSGSGTDFTLTISSLEPEDFAVYYCQQFNSWPLTFGQGTKVEIKR
notes: Human IgG1/kappa; also called humanized C1C1-V7
In the case of B1, the “cell based functional assay (EC50, nM)” value [1] is reported as 4.25 nM, the Kd [2] is reported as 11.3 nM and the Kd [3] is reported as 4.04 nM. It also gave an EC50 [4] of 1.85 nM, a Kd [5] of 11.9 nM and a koff [5] of 0.00968 s⁻¹. For the same binder, the kon [5] was 814000 M⁻¹ s⁻¹, the EC50 [6] was 0.248 nM and the IC50 [7] was 0.111 nM. The IC50 [8] was 3 nM, the “EC50 (read off the curve)” value [9] was about 0.3 µg/mL and the “EC50 (read off the curve)” value [10] was about 0.04 µg/mL. For the same binder, the “IC50 (read off the curve)” value [11] was about 0.5 µg/mL and the “IC50 (read off the curve)” value [12] was about 0.02 µg/mL.
